PMC12430004
Changes are numbered by the printed parent chain. Like-named read-outs stand apart in the source and are kept apart here.

T1: hPNPase P140L (Homo sapiens, UniProt Q8TCS8 46-783, P140L)
T1 sequence: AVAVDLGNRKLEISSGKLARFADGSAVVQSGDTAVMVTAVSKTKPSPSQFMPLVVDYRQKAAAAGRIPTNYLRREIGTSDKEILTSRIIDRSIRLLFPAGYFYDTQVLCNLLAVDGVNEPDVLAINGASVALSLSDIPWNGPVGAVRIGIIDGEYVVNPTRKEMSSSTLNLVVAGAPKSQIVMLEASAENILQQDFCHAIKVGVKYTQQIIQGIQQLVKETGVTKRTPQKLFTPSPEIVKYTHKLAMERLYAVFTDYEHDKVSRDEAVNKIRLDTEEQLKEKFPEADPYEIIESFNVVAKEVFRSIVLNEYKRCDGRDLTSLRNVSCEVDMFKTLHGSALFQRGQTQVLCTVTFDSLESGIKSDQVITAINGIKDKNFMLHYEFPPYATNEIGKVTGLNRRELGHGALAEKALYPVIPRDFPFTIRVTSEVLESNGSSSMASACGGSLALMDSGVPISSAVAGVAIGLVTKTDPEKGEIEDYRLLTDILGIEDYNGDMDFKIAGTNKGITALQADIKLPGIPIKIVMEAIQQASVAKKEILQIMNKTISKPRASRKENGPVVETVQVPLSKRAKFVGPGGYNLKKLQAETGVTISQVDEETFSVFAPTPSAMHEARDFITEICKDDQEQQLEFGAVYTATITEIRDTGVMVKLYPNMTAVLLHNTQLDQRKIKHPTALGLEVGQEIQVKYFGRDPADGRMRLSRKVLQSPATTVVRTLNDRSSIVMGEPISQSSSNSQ

T2: hPNPase E475G (Homo sapiens, UniProt Q8TCS8 46-783, E475G)
T2 sequence: T1 sequence with L95P, E430G

T3: hPNPase Q387R (Homo sapiens, UniProt Q8TCS8 46-783, Q387R)
T3 sequence: T1 sequence with L95P, Q342R


Experiments:
Experiment in all cases: EMSA
hPNPase P140L = target: T1, hPNPase P140L
hPNPase E475G [1] = target: T2, hPNPase E475G
hPNPase Q387R [2] = target: T3, hPNPase Q387R
hPNPase E475G [3] = target: T2, hPNPase E475G; remark: listed apart in the source
hPNPase Q387R [4] = target: T3, hPNPase Q387R; remark: listed apart in the source

Row | Binder | binding result (hPNPase P140L) | binding result (hPNPase E475G [1]) | binding result (hPNPase Q387R [2]) | binding result (hPNPase E475G [3]) | binding result (hPNPase Q387R [4])
1 | ACTGGACAAATACTCCGACG (ssDNA) [DNA20] | no binding | no binding | no binding | – | –
2 | ACUGGACAAAUACUCCGACG (ssRNA) [RNA20] | – | – | – | no binding | no binding
